# Laboratory results taken from PMC10466376.
# What was measured:
# Assay in all cases: potentiometry
# [1] = biological target: Glu3 (position 3, ---KQEGRDHD); details: 298 K; 0.1 M NaClO4; none (4 mM HClO4 / 100 mM NaClO4); metal-free peptide, 0.5 mM, disordered
# [2] = biological target: Nterm1 (position 1, -----KQEGRD); details: 298 K, 0.1 M NaClO4, none (4 mM HClO4 / 100 mM NaClO4)
# Glu5 (position 5, -…) = details: 298 K; 0.1 M NaClO4; none (4 mM HClO4 / 100 mM NaClO4); metal-free peptide, 0.5 mM, disordered
# [3] = biological target: Nterm1 (position 1, -----HNKQEG); details: 298 K; 0.1 M NaClO4; none (4 mM HClO4 / 100 mM NaClO4); metal-free peptide, 0.5 mM, disordered
# [4] = biological target: Cterm29 (position 29, KGGKAH-----); details: 298 K; 0.1 M NaClO4; none (4 mM HClO4 / 100 mM NaClO4); metal-free peptide, 0.5 mM, disordered
# Lys9 (position 9, …) = details: 298 K; 0.1 M NaClO4; none (4 mM HClO4 / 100 mM NaClO4); Zn(II)-bound peptide, mononuclear complex, Zn:peptide 1:1 (supplement captions state 0.9:1), peptide 0.5 mM
# Lys11 (position 11, …-) = details: 298 K; 0.1 M NaClO4; none (4 mM HClO4 / 100 mM NaClO4); Zn(II)-bound peptide, mononuclear complex, Zn:peptide 1:1 (supplement captions state 0.9:1), peptide 0.5 mM
# [5] = biological target: Lys1 (position 1, -----KQEGRD); details: 298 K; 0.1 M NaClO4; none (4 mM HClO4 / 100 mM NaClO4); Zn(II)-bound peptide, mononuclear complex, Zn:peptide 1:1 (supplement captions state 0.9:1), peptide 0.5 mM
# [6] = biological target: Cterm15 (position 15, SKGHFH-----); details: 298 K; 0.1 M NaClO4; none (4 mM HClO4 / 100 mM NaClO4); metal-free peptide, 0.5 mM, disordered
# [7] = metal-free peptide, 0.5 mM, disordered
Protein,pKa [1],"pKa [2, 7]","pKa (Glu5 (position 5, -…))",pKa [3],pKa [4],"pKa (Lys9 (position 9, …))","pKa (Lys11 (position 11, …-))","pKa ([2]; Cu(II)-bound peptide, mononuclear complex, Cu:peptide 1:1 (supplement captions state 0.9:1), peptide 0.5 mM)","pKa ([2]; Zn(II)-bound peptide, mononuclear complex, Zn:peptide 1:1 (supplement captions state 0.9:1), peptide 0.5 mM)",pKa [5],pKa [6]
"KQEGRDHDKSKGHFHMIVIHHKGGQAHHG [SgIIA (SgII peptide A), 29-residue fragment of semenogelin II (Homo sapiens)]",4.26,9.47,,,,,,,,,
"HNKQEGRDHDKSKGHFHRVVIHHKGGKAH [SgI-29, 29-residue fragment of semenogelin I (Homo sapiens)]",,,3.74,9.45,2.18,,,,,,
"KQEGRDHDKSKGHFH [Sg-15, 15-residue fragment common to semenogelin I and semenogelin II (Homo sapiens)]",4.36,7.58,,,,10.40,10.59,6.82,6.88,9.52,2.34
